Patent publication US20160083733

How the values were obtained:
[1] = target: GST-PDX1 T11A (bacterially purified), P52946
[2] = target: GST-PDX1 T126A (bacterially purified), P52946
[3] = target: GST-PDX1 T152A (bacterially purified), P52946
[4] = target: GST-PDX1 T155A (bacterially purified), P52946
[5] = target: GST-PDX1 T214A (bacterially purified), P52946
[6] = target: GST-PDX1 T231A (bacterially purified), P52946
[7] = target: GST-PDX1 WT (bacterially purified), P52946
[8] = target: Purified recombinant human PDX-1 (Abcam), P52945
Sequence of Purified recombinant human PDX-1 (Abcam), P52945 (P52945 whole entry): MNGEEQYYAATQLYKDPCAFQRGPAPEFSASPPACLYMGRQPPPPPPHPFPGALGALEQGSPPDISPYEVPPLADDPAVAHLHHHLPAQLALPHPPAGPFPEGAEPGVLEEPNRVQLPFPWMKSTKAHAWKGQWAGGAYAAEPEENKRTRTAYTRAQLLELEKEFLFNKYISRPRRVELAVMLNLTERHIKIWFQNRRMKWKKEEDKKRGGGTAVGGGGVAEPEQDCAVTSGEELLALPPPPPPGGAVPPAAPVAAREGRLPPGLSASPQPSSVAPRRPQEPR

Sequence of GST-PDX1 T155A (bacterially purified), P52946 (P52946 whole entry T155A, looked up): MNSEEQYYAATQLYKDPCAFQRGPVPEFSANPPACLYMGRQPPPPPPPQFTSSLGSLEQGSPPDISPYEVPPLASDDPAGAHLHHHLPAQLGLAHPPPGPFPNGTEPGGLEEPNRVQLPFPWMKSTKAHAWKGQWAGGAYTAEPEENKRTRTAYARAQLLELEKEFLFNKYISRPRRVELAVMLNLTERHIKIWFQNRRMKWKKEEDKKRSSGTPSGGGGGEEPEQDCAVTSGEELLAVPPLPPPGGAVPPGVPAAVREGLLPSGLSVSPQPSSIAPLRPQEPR
Sequence of GST-PDX1 T152A (bacterially purified), P52946 (P52946 whole entry T152A, looked up): as the sequence (P52946 whole entry T155A, looked up) above, with T152A, A155T counted along it
Sequence of GST-PDX1 T214A (bacterially purified), P52946 (P52946 whole entry T214A, looked up): as the sequence (P52946 whole entry T155A, looked up) above, with A155T, T214A counted along it
Sequence of GST-PDX1 T11A (bacterially purified), P52946 (P52946 whole entry T11A, looked up): as the sequence (P52946 whole entry T155A, looked up) above, with T11A, A155T counted along it
Sequence of GST-PDX1 T231A (bacterially purified), P52946 (P52946 whole entry T231A, looked up): as the sequence (P52946 whole entry T155A, looked up) above, with A155T, T231A counted along it
Sequence of GST-PDX1 T126A (bacterially purified), P52946 (P52946 whole entry T126A, looked up): as the sequence (P52946 whole entry T155A, looked up) above, with T126A, A155T counted along it
Sequence of GST-PDX1 WT (bacterially purified), P52946 (P52946 whole entry): as the sequence (P52946 whole entry T155A, looked up) above, with A155T counted along it

B1: Purified human active MST1 (Upstate Biotechnology) (protein)
chain: METVQLRNPPRRQLKKLDEDSLTKQPEEVFDVLEKLGEGSYGSVYKAIHKETGQIVAIKQVPVESDLQEIIKEISIMQQCDSPHVVKYYGSYFKNTDLWIVMEYCGAGSVSDIIRLRNKTLTEDEIATILQSTLKGLEYLHFMRKIHRDIKAGNILLNTEGHAKLADFGVAGQLTDTMAKRNTVIGTPFWMAPEVIQEIGYNCVADIWSLGITAIEMAEGKPPYADIHPMRAIFMIPTNPPPTFRKPELWSDNFTDFVKQCLVKSPEQRATATQLLQHPFVRSAKGVSILRDLINEAMDVKLKRQESQQREVDQDDEENSEEDEMDSGTMVRAVGDEMGTVRVASTMTDGANTMIEHDDTLPSQLGTMVINAEDEEEEGTMKRRDETMQPAKPSFLEYFEQKEKENQINSFGKSVPGPLKNSSDWKIPQDGDYEFLKSWTVEDLQKRLLALDPMMEQEIEEIRQKYQSKRQPILDAIEAKKRRQQNF
B1 was tested, and the “in vitro kinase assay, pan-phospho threonine western blot” value [1] was “With the exception of T11A, PDX1-WT and other mutants were efficiently threonine phosphorylated”, the “in vitro kinase assay, pan-phospho threonine western blot” value [2] was “With the exception of T11A, PDX1-WT and other mutants were efficiently threonine phosphorylated” and the “in vitro kinase assay, pan-phospho threonine western blot” value [3] was “With the exception of T11A, PDX1-WT and other mutants were efficiently threonine phosphorylated”. For the same protein, the “in vitro kinase assay, pan-phospho threonine western blot” value [4] was “With the exception of T11A, PDX1-WT and other mutants were efficiently threonine phosphorylated”, the “in vitro kinase assay, pan-phospho threonine western blot” value [5] was “With the exception of T11A, PDX1-WT and other mutants were efficiently threonine phosphorylated” and the “in vitro kinase assay, pan-phospho threonine western blot” value [6] was “With the exception of T11A, PDX1-WT and other mutants were efficiently threonine phosphorylated”. The “in vitro kinase assay, pan-phospho threonine western blot” value [7] was “With the exception of T11A, PDX1-WT and other mutants were efficiently threonine phosphorylated” and the “in vitro kinase assay (32P autoradiography; western blot with phospho-specific antibody)” value [8] was “In vitro kinase assays showed that MST1 efficiently phosphorylated PDX1”.
